Results on 24 molecules are retold here after patent US20240124597A1 (Bristol-Myers Squibb, published 2024).

The labels stand for the following.
B1: ADX_Y1258.ZZ0-1 (antibody, V domains shown)
VH: QVQLQQSGAELAKPGSSVKMSCKASGYAFTSYWMHWIKQRPGQGLEWIGFINPTTGYSEYNQKFKDKATLTADKSSSTAYMQLNSLTSEDSAVYFCARWGLPPFAYWGQGTLVTVSA
VL: DIVMTQSHKFMSTSVGDRVSITCKASQDVSTAVAWYQQKPGQSPKLLIYSASYRYTGVPDRFTGSGSGTDFTFTISSVQAEDLAVYYCQQHYSTPWTFGGGTKLEIK
notes: Mouse anti-human-CD40 antibody
B2: ADX_Y1267.ZZ0-1 (antibody, V domains shown)
VH: QVQLQQPGAELVKPGASVRLSCEASGYSFTSYWMHWVKQRPGQGLEWIGQINPSNGRTQYNEKFKSMATLTVDKSSSTAYIQLNSLTSEDSAVYYCARWGLQPFAYWGQGTLVTVSA
VL: B1 VL with Q89L, S93T
notes: as for B1
B3: ADX_Y1264.ZZ0-1 (antibody, V domains shown)
VH: EVQLQQSGTVLARPGASVKMSCRASGYSFSSYWMHWVKQRPGQGLEWIGSINPGNSDAFYNQQFKGKAKLTAVTSASTAYMELSSLTNEDSAVYYCTRWGLPPFAYWGQGTLVTVSA
VL: B1 VL with Q89H
notes: as for B1
B4: ADX_Y1268.ZZ0-1 (antibody, V domains shown)
VH: B2 VH with E23K, S28A, T58S, S66T, N84S
VL: B1 VL
notes: as for B1
B5: ADX_Y1260.ZZ0-1 (antibody, V domains shown)
VH: QVQLQQSGAELTKPGASVKMSCKASGYSFTSYWMHWVKQRPGQGLEWIGSINPSTGYTEDNQKFKDKATLTADKSSTTAYMQLSSLTSEDSAVYYCARWGLPPFAYWGQGTLVTVSA
VL: B1 VL
notes: as for B1
B6: ADX_Y1262.ZZ0-1 (antibody, V domains shown)
VH: B1 VH with I37V, F50Y, E59A, F95Y, G100D, L101P, P102R
VL: B1 VL with S67Y
notes: as for B1
B7: ADX_Y1072.ZZ0-1 (antibody, V domains shown)
VH: QVQFQQSGAELARPGASVKLSCKASGYTFTSYWMQWVKQRPGQGLEWIGTIYPGDGDSRYNQKFKGKALLTADKSSSIAYMQLNSLASEDSAVYFCARFSLYDGYPYYFDYWGQGTTLTVSS
VL: DVVMTQTPLSLPVSLGDQASISCRSSQSLVHRNGNTYLHWYLQKPGQSPKLLIYRVSNRFSGVPDRFSGSGSGTDFTLKISRVEAEDLGIYFCSQSTHFPYTFGGGTKLEIK
notes: as for B1
B8: Y1258 (antibody, human IgG1, kappa)
heavy: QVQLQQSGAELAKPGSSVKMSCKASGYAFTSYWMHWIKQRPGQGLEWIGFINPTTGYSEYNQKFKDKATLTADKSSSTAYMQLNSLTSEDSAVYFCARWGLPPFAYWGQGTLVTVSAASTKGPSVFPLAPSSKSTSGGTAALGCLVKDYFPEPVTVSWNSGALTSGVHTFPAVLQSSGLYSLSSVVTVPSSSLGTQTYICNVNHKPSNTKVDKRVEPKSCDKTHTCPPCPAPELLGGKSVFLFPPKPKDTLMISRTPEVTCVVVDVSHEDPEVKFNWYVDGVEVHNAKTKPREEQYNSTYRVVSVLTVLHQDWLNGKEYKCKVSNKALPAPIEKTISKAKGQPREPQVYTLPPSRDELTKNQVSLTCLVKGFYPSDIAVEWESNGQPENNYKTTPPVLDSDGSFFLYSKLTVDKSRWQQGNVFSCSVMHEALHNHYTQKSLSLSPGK
light: DIVMTQSHKFMSTSVGDRVSITCKASQDVSTAVAWYQQKPGQSPKLLIYSASYRYTGVPDRFTGSGSGTDFTFTISSVQAEDLAVYYCQQHYSTPWTFGGGTKLEIKRTVAAPSVFIFPPSDEQLKSGTASVVCLLNNFYPREAKVQWKVDNALQSGNSQESVTEQDSKDSTYSLSSTLTLSKADYEKHKVYACEVTHQGLSSPVTKSFNRGEC
notes: Chimeric, mouse variable and human constant regions; supernatant sample; also called chimeric Y1258
B9: Y1262 (antibody, human IgG1, kappa)
heavy: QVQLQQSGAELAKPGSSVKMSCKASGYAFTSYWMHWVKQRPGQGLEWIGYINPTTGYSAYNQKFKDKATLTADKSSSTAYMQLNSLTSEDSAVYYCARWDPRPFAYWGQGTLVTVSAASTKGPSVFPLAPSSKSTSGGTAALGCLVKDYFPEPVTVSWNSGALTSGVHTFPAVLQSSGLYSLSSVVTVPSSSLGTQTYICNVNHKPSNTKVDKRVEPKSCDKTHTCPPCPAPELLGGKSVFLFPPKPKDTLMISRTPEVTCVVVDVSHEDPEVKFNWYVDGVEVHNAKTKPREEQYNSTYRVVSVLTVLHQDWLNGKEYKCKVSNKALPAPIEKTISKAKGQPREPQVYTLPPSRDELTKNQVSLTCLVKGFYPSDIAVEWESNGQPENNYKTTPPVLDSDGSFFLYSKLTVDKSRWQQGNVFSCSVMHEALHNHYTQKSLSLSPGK
light: B8 light with S67Y
notes: Chimeric, mouse variable and human constant regions; supernatant sample; also called chimeric Y1262; Chim
B10: Y12XX-hz30 (antibody, human IgG1, kappa, V domains shown)
VH: QVQLVQSGAEVKKPGSSVKVSCKASGYAFTSYWMHWVRQRPGQGLEWMGFINPTTGYSEYNQKFKDRVTITADKSTSTAYMELSSLRSEDTAVYYCARWGLPPFAYWGQGTLVTVSS
VL: EIVMTQSPATLSVSPGERATLSCKASQDVSTAVAWYQQKPGQAPRLLIYSASYRYTGIPARFSGSGSGTEFTLTISSLQSEDFAVYYCQQHYSTPWTFGGGTKVEIKR
notes: Humanized, IgG1-P238K; supernatant sample
B11: Y12XX-hz19 (antibody, human IgG1, kappa, V domains shown)
VH: B10 VH with F50Y, E59A, R67K, V68A, I70L, G100D, L101P, P102R
VL: DIQMTQSPSFLSASVGDRVTITCKASQDVSTAVAWYQQKPGKAPKLLIYSASYRYTGVPSRFSGSGSGTDFTLTISSLQPEDFATYYCQQHYSTPWTFGGGTKVEIKR
notes: as for B10
B12: Y12XX-hz18 (antibody, human IgG1, kappa, V domains shown)
VH: B10 VH with R40A, F50Y, E59A, R67K, V68A, I70L, G100D, L101P, P102R
VL: B11 VL
notes: as for B10
B13: Y12XX-hz20 (antibody, human IgG1, kappa, V domains shown)
VH: B10 VH with M48I, F50Y, E59A, R67K, V68A, I70L, S84N, G100D, L101P, P102R
VL: B11 VL
notes: as for B10
B14: Y12XX-hz34 (antibody, human IgG1, kappa, V domains shown)
VH: B10 VH with M48I, F50Y, E59A, R67K, V68A, I70L, S84N, G100D, L101P, P102R
VL: B10 VL
notes: as for B10
B15: Y12XX-hz22 (antibody, human IgG1, kappa, V domains shown)
VH: B10 VH with R40A, F50Y, E59A, R67K, V68A, I70L, G100D, L101A, P102R
VL: B11 VL
notes: as for B10
B16: Y12XX-hz6 (antibody, human IgG1, kappa, V domains shown)
VH: B10 VH with M48I, F50Y, E59A, R67K, V68A, I70L, S84N, G100D, L101P, P102R
VL: B11 VL with F10S, L73F, F83I
notes: as for B10
B17: Y12XX-hz41 (antibody, human IgG1, kappa, V domains shown)
VH: B10 VH with R40A, F50Q, T54S, T55N, G56A, Y57R, E59Q, Q62E, D66T, P102Q
VL: B10 VL
notes: as for B10
B18: Y12XX-hz36 (antibody, human IgG1, kappa, V domains shown)
VH: B10 VH with R40A, F50Y, E59A, R67K, V68A, I70L, G100D, L101A, P102R
VL: B10 VL
notes: as for B10
B19: Y12XX-hz39 (antibody, human IgG1, kappa, V domains shown)
VH: B10 VH with M48I, F50Q, T54S, T55N, Y57R, E59Q, Q62E, D66T, P102Q
VL: B10 VL
notes: as for B10
B20: Y12XX-hz38 (antibody, human IgG1, kappa, V domains shown)
VH: B10 VH with F50Q, T54S, T55N, Y57R, E59Q, Q62E, D66T, P102Q
VL: B10 VL
notes: as for B10
B21: Y12XX-hz33 (antibody, human IgG1, kappa, V domains shown)
VH: B10 VH with F50Y, E59A, R67K, V68A, I70L, G100D, L101P, P102R
VL: B10 VL
notes: as for B10
B22: Y12XX-hz31 (antibody, human IgG1, kappa, V domains shown)
VH: B10 VH with M48I, S84N
VL: B10 VL
notes: as for B10
B23: Y12XX-hz37 (antibody, human IgG1, kappa, V domains shown)
VH: B10 VH with R40A, F50Q, T54S, T55N, Y57R, E59Q, Q62E, D66T, P102Q
VL: B10 VL
notes: as for B10
B24: Y12XX-hz32 (antibody, human IgG1, kappa, V domains shown)
VH: B10 VH with R40A, F50Y, E59A, R67K, V68A, I70L, G100D, L101P, P102R
VL: B10 VL
notes: as for B10

Where a chain is given by its changes, count along the chain named. Names may count otherwise.

T1 sequence (P25942 21-193 limits assumed): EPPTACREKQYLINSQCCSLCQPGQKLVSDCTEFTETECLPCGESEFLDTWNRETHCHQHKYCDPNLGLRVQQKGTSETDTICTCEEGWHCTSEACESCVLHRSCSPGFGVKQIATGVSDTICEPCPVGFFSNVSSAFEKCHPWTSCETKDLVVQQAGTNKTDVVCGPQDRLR

The first test concerns the target T1, human-CD40-monomer protein (human, UniProt P25942 21-193, limits assumed).
T1 construct: Soluble monomer generated in house, used as SPR analyte; also called hCD40; hCD40-monomer
In words: SPR, Ab captured on protein A, 1 uM hCD40 monomer, single concentration, apparent value. As to the method:
The CD40 kinetic and affinity data for human-CD40 monomer binding to mouse anti-human CD40 antibodies captured on a protein A sensor chip surface were assessed by SPR. The data shown are for a single concentration of CD40 analyte (1 μM) and are therefore reported as apparent (app) values.
For orientation: In SPR one partner is held on a chip, and binding of the other changes the refractive index at the surface.
As to B1, the Kd came out at 7.9 nM, the koff (commonly the first-order rate constant of dissociation) is 0.00013 s⁻¹ and the kon (commonly the second-order rate constant of association) worked out at 17000 M⁻¹ s⁻¹.
Regarding B2, the Kd was 1.1 nM, the koff came to 0.00041 s⁻¹ and the kon was found to be 370000 M⁻¹ s⁻¹.
As to B3, the Kd is 17 nM, the koff amounted to 0.00023 s⁻¹ and the kon amounted to 14000 M⁻¹ s⁻¹.
As to B4, the Kd came out at 1.4 nM, the koff was found to be 0.00046 s⁻¹ and the kon stood at 320000 M⁻¹ s⁻¹.
For B5, the Kd worked out at 4 nM, the off-rate (koff) came to 0.00021 s⁻¹ and the kon came to 52000 M⁻¹ s⁻¹.
As to B6, the Kd was 6.6 nM, the koff came to 0.0025 s⁻¹ and the kon amounted to 370000 M⁻¹ s⁻¹.
Consider B7, for which the Kd was 120 nM, the koff was 0.0092 s⁻¹ and the kon came out at 77000 M⁻¹ s⁻¹.

Another test deals with T1, human-CD40-monomer protein. Kind of test: SPR, Ab captured on protein A, hCD40 monomer 500 and 50 nM, 1:1 fit; supernatant. As to the method: Titer analysis was performed using Biolayer Interferometry (BLI) on an Octet RED instrument (Fortebio) by capturing antibodies from supernatant using protein A sensor tips and measuring capture response with respect to a standard curve obtained using a control antibody sample. SPR data were obtained by capturing antibodies on a protein A surface and testing the binding of 500 nM and 50 nM injections of human-CD40 analyte, using a BIAcore™ T200 instrument (GE Healthcare). The kinetic data for the two concentrations of hCD40-monomer were fit to a 1:1 Langmuir model, to yield estimates of the kinetic and affinity values for these interactions, and for comparison of the different molecules.
B8 returned a Kd of 0.067 nM, a koff of 3.8e-06 s⁻¹ and a kon of 56000 M⁻¹ s⁻¹.
Molecule B9 returned a Kd of 8 nM, a koff of 0.0028 s⁻¹ and a kon of 350000 M⁻¹ s⁻¹.
B10 displayed a Kd of 0.018 nM, a koff of 7.3e-07 s⁻¹ and a kon of 41000 M⁻¹ s⁻¹.
Consider B11, for which the Kd worked out at 6.2 nM, the koff was determined as 0.0023 s⁻¹ and the kon is 380000 M⁻¹ s⁻¹.
On the same counts, the results for B12 are 7.1 nM, 0.0024 s⁻¹ and 350000 M⁻¹ s⁻¹.
B13 yielded a Kd of 8.2 nM, an off-rate (koff) of 0.0025 s⁻¹ and a kon of 310000 M⁻¹ s⁻¹.
In turn, B14 showed a Kd of 7.6 nM, a dissociation rate constant (koff) of 0.0028 s⁻¹ and a kon of 370000 M⁻¹ s⁻¹.
B15 returned a Kd of 210 nM, a koff of 0.079 s⁻¹ and an on-rate constant (kon) of 370000 M⁻¹ s⁻¹.
For B16 the same measures were 6.4 nM, 0.0024 s⁻¹ and 380000 M⁻¹ s⁻¹.
On to B17, for which the Kd was 3.8 nM, the off-rate (koff) was 0.00094 s⁻¹ and the on-rate constant (kon) is 250000 M⁻¹ s⁻¹.
On the same counts, the results for B18 are 250 nM, 0.1 s⁻¹ and 390000 M⁻¹ s⁻¹.
B19 registered a Kd of 3.5 nM, a koff of 0.00084 s⁻¹ and a kon of 240000 M⁻¹ s⁻¹.
B20 yielded a Kd of 3.6 nM, a koff of 0.00088 s⁻¹ and an on-rate (kon) of 250000 M⁻¹ s⁻¹.
As to B21, the Kd was determined as 11 nM, the koff is 0.0033 s⁻¹ and the kon turned out to be 290000 M⁻¹ s⁻¹.
In turn, B22 gave a Kd of 0.007 nM, an off-rate constant (koff) of 2.9e-07 s⁻¹ and an association rate constant (kon) of 41000 M⁻¹ s⁻¹.
Turning to B23, the Kd was 3.3 nM, the dissociation rate constant (koff) turned out to be 0.00084 s⁻¹ and the on-rate constant (kon) amounted to 260000 M⁻¹ s⁻¹.
Take B24: the Kd came out at 10 nM, the koff stood at 0.003 s⁻¹ and the kon came out at 290000 M⁻¹ s⁻¹.
